# In patent US10479836B2, “Method for treating pulmonary hypertension with interleukin-5 receptor antibody” (University of Toyama, priority 2015, dated 2019):
# T1: mouse FcγRI (Mus musculus, UniProt P26151)
# T1 construct: purchased R&D Systems, Inc
# T1 sequence (P26151 25-404): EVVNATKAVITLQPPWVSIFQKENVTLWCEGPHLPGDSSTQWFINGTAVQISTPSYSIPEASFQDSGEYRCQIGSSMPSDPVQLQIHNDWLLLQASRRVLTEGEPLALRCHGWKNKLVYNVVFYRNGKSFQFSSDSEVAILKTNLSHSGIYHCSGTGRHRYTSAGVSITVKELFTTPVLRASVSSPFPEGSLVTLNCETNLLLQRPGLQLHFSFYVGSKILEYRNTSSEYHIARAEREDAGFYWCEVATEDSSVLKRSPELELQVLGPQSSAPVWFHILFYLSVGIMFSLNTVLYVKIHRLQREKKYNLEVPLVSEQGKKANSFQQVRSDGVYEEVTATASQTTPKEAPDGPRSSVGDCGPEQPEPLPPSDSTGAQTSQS
# T2: mouse FcγRIIb (Mus musculus, UniProt P08101)
# T2 construct: purchased R&D Systems, Inc
# T2 sequence (P08101 30-330): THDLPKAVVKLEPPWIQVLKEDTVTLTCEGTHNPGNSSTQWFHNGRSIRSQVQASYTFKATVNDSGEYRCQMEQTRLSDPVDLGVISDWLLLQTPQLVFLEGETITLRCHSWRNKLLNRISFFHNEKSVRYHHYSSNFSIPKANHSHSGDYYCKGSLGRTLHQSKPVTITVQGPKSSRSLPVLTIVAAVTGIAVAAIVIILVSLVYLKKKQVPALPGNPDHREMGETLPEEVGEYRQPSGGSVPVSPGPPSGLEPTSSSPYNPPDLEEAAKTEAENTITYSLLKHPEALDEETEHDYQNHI
# T3: mouse FcγRIV (Mus musculus, UniProt A0A0B4J1G0)
# T3 construct: purchased R&D Systems, Inc
# T3 sequence (A0A0B4J1G0 21-249): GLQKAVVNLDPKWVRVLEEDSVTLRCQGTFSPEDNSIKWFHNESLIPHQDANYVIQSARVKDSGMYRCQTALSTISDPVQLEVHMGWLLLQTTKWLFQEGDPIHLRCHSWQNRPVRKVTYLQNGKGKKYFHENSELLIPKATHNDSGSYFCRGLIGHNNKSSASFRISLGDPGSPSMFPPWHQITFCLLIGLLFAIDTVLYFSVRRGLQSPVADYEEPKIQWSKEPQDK
# T4: mouse FcγRIII (Mus musculus, UniProt P08508)
# T4 construct: purchased R&D Systems, Inc
# T4 sequence (P08508 31-261): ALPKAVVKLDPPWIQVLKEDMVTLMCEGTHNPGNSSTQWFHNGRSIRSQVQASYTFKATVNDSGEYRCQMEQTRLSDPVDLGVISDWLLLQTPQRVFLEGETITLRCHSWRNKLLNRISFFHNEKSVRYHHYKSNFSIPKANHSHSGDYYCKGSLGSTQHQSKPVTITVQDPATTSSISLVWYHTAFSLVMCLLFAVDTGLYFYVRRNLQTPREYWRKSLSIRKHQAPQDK
# B1: H7-1: core fucose-deficient rat/human chimeric antibody of anti-IL-5R rat monoclonal antibody H7, human IgG1 constant region (antibody, V domains shown)
# VH: EVQLQQSGAELGKPGTSVKLSCKVSGYNIKNTYIHWVNQRPGKGLEWIGRIDPANGNPIYAEKFKNKATLTADTSSNTAYMQLSQLKSDDTAIYFCAMHRGHSMGPGPYVMDAWGQGASVTVSS
# VL: DIQMTQSPASLSASLGETVTIECRTSEDIYNGLAWYQQKPGKSPQLLIYNANSLHTGVPSRFSGSGSGTQYSLKINSLQSEDVASYCCQQYSNYPFTFGSGTKLEIK
# B2: H7-3: N-linked sugar chain-deficient H7 chimeric antibody, human IgG1 (N297A), lacking ADCC activity (antibody, V domains shown)
# VH: EVQLQQSGAELGKPGTSVKLSCKVSGYNIKNTYIHWVNQRPGKGLEWIGRIDPANGNPIYAEKFKNKATLTADTSSNTAYMQLSQLKSDDTAIYFCAMHRGHSMGPGPYVMDAWGQGASVTVSS
# VL: DIQMTQSPASLSASLGETVTIECRTSEDIYNGLAWYQQKPGKSPQLLIYNANSLHTGVPSRFSGSGSGTQYSLKINSLQSEDVASYCCQQYSNYPFTFGSGTKLEIK
# Columns and labels:
# [1] = tested on: rIL-33-induced pulmonary vascular wall thickening; experiment: rIL-33-induced pulmonary arterial wall thickening, Heath-Edwards grading of lung tissue; format: in vivo, mouse; details: IL-5+/+ mice given rIL-33; intrabronchial administration on days 7 and 14; compared with PBS group; FIG. 8
# Description: Therefore, the degree of vascular wall thickening in IL-5^+/+ mice and IL-5^V/V mice was quantitatively graded on the basis of the Heath-Edwards grading system. On days 0, 7, and 14, 400 ng of rIL-33 was administered to each mouse. On day 21, lung tissues were resected and subjected to pathological observation to conduct tissue classification on the basis of the Heath-Edwards grading system.
# In this grading system, evaluation was carried out according to grade 1: medial thickening, grade 2: intimal thickening, grade 3: advanced intimal thickening and medial thickening, and grade 4; plexiform lesion in addition to advanced intimal thickening and medial thickening.
# In an experimental system similar to that of Example 3, in order to confirm the inhibitory effect of an anti-IL-5 neutralizing antibody on intimal thickening and medial thickening, 100 μg of an anti-IL-5 rat monoclonal antibody (NC17) (Hitoshi et al., Int. Immunol., 1991; 3; 135-139) or a rat IgG control antibody (manufactured by Sigma-Aldrich Co., LLC) was intraperitoneally administered to each IL-5^+/+ mouse for 3 consecutive days (a total of 3 times) from two days before rIL-33 administration day. Then, on day 21, lung tissues were resected and subjected to pathological observation to conduct tissue classification on the basis of the Heath-Edwards grading system. […]
# [2] = target: T1, mouse FcγRI; experiment: Biacore steady state affinity for mouse FcγRI; format: binding; details: Biacore T-200, Steady State Affinity mode
# Description: (§1) The various H7 chimeric antibodies prepared in Example 8 and the parent antibody H7 rat IgG2a-type antibody were evaluated for their affinity for mouse FcγR using Biacore T-200 (manufactured by GE Healthcare Japan Corp.). An anti-tetra His mouse antibody (manufactured by Qiagen N.V.) was immobilized with 8000 RU as a guideline onto CM5 sensor chip using an amine coupling kit (all manufactured by GE Healthcare Japan Corp.). The coupling buffer used was 10 mM sodium acetate (pH 4.5). His tag-fused mouse FcγRI, IIb, III, and IV proteins (all manufactured by R&D Systems, Inc.) each dissolved at 2 μg/mL in HBS-EP(+) were captured as ligands at 2 μL/min for 30 sec. Then, each antibody serially diluted into concentrations of […] was added thereto as an analyte by the multicycle method. The flow rate was 5 μL/min, and the contact time and the dissociation time were both set to a condition of 240 sec. The analysis was carried out using Biacore T200 Evaluation software on the Steady State Affinity mode. A rise in binding activity against FcγRI and FcγRIV involved in in vivo mouse effector activity was observed by the alteration of the H7 constant region from rat IgG2a type to hIgG1 type.
# [3] = tested on: Y16 cells; experiment: ADCC activity against Y16 cells with human PBMC effector cells (LDH release); format: cell-based, mouse; details: 4 hrs, 0.0001-1000 ng/mL (control antibodies 1000 ng/mL), FIG. 13
# Description: The H7 recombinant chimeric antibodies prepared in Example 8 were evaluated for their ADCC activity against Y16 cells using frozen human peripheral blood mononuclear cells (PBMCs) (manufactured by AllCells) as effector cells. The frozen human PBMCs were shake-cultured (37° C., 5% CO2, overnight) in RPMI1640 medium containing 5% FBS. The Y16 cells (target cells) and the human PBMCs (effector cells) were washed with ADCC assay medium (RPIM1640 containing 5% dialyzed FBS) and adjusted to cell densities of 2×10^5 cells/mL and 3×10^6 cells/mL, respectively. The cells were washed twice with a medium and then suspended into cell densities of 4×10^5 cells/mL. Each chimeric antibody adjusted to a final concentration of 0.0001, 0.001, 0.01, 0.1, 1, 10, 100, or 1000 ng/mL, the target cells (2×10^4 cells/well), and the effector cells (5×10^5 cells/well) were added in this order at 50 μL/well to a 96-well U-bottom plate. The control antibodies used were the rtDNP-1 hIgG1 (DF) antibody (KM8808) and the rtDNP-1 hIgG1 (N297A) antibody (KM6161) of Example 10 adjusted to a final concentration of 1000 ng/mL. The plate was centrifuged (500 rpm, 5 min) and then left standing in an incubator (37° C., 5% CO2, 4 hrs). The plate was centrifuged (1500 rpm, 5 min) to recover a supernatant at 50 μL/well into a 96-well Flat-bottom plate (manufactured by Sumitomo Bakelite Co., Ltd.). Lactate dehydrogenase (LDH) activity in the supernatant was detected using CytoTox 96 Non-Radioactive Cytotoxicity Assay (manufactured by Promega Corp.). Absorbance at 490 nm was measured using a plate reader SPECTRA MAX 340 PC384 (manufactured by Molecular Devices, LLC). The ADCC activity (%) was calculated according to the following equation using background-corrected measurement values. Cytotoxicity=[[Absorbance of the sample]−[Absorbance derived from spontaneous release from the target cells and the effector cells]]/[[Absorbance derived from total release from the target cells]−[Absorbance derived from spontaneous release from the target cells]]
# [4] = tested on: mouse IL-5Rα-expressing cell Y16; experiment: Antigen binding activity of chimeric antibodies on Y16 cells by FCM; format: cell-based; details: 0.6-10000 ng/mL antibody, 4° C. 60 min; FIG. 12
# Description: The chimeric antibodies prepared in Example 8 were evaluated for their antigen binding activity using a mouse-derived cell line Y16 expressing IL-5R. The Y16 cells were washed with SM (staining medium containing 2% FCS, 0.05% NaN3, and 1 mM EDTA in PBS). Then, Mouse BD Fc Block (manufactured by Becton, Dickinson and Company) was added thereto at a concentration of 5 μg/mL, and the mixture was left standing at 4° C. for 30 min. The cells were inoculated at a cell number of 1×10^5 cells/well to a 96-well U-bottom plate, and each chimeric antibody adjusted to a final concentration of 10000, 2500, 625, 156, 39, 10, 2.4, or 0.6 ng/mL was added thereto, followed by reaction at 4° C. for 60 min. The rat/human chimeric control antibodies used were rtDNP-1 hIgG1 (DF) antibody (KM8808) and rtDNP-1 hIgG1 (N297A) antibody (KM6161). The nucleotide sequences and amino acid sequences of the variable regions of each isotype control antibody are shown in SEQ ID NOs: 29 to 34. After washing of the cells with SM, Goat F(ab′)2 Anti-Human IgG PE (γ chain specific) (manufactured by Southern Biotech) diluted 500-fold with SM was added thereto, followed by reaction at 4° C. for 60 min. After washing of the cells with SM, the cells were resuspended in 50 μL of SM. Fluorescence intensity was measured by FCM (flow cytometer FACS Canto II (manufactured by Becton, Dickinson and Company)). The data was analyzed using FlowJo 7.65 (manufactured by Tomy Digital Biology Co., Ltd.) to calculate a Geomean value at each concentration.
# [5] = target: T2, mouse FcγRIIb; experiment: Biacore steady state affinity for mouse FcγRIIb; format: binding; details: Biacore T-200, Steady State Affinity mode
# Description: as §1
# [6] = target: T3, mouse FcγRIV; experiment: Biacore steady state affinity for mouse FcγRIV; format: binding; details: Biacore T-200, Steady State Affinity mode
# Description: as §1
# [7] = target: T4, mouse FcγRIII; experiment: Biacore steady state affinity for mouse FcγRIII; format: binding; details: Biacore T-200, Steady State Affinity mode
# Description: as §1
Molecule,"pulmonary vascular wall thickening (histological scores, Heath-Edwards grading) [1]",Kd [2] [nM],ADCC activity against Y16 cells [3],"antigen binding activity (fluorescence intensity, Geomean) on Y16 cells [4]",Affinity KD for mouse FcγRIIb [5],Kd [6] [nM],Affinity KD for mouse FcγRIII [7],Affinity KD for mouse FcγRI [2],Affinity KD for mouse FcγRIV [6]
CC#CCC(C)[C@H](O)/C=C/[C@@H]1[C@H]2C/C(=C/CCCC(=O)O)C[C@H]2C[C@H]1O (stereo partly shown) [iloprost],evident decrease in pulmonary vascular wall thickening was observed,,,,,,,,
B1,,137,exhibited antibody concentration-dependent ADCC activity,confirmed to react equivalently,no binding,89.5,no binding,,
B2,,,none,confirmed to react equivalently,no binding,,no binding,very weak,no binding
